{"source": "paper PMC12313985", "key": {"[1]": {"target": "PKA-phosphorylated full-length human Tau (PKA-Tau) (human) (UniProt P10636)", "sequence (P10636 other isoform, or with tags, fused parts or gaps)": "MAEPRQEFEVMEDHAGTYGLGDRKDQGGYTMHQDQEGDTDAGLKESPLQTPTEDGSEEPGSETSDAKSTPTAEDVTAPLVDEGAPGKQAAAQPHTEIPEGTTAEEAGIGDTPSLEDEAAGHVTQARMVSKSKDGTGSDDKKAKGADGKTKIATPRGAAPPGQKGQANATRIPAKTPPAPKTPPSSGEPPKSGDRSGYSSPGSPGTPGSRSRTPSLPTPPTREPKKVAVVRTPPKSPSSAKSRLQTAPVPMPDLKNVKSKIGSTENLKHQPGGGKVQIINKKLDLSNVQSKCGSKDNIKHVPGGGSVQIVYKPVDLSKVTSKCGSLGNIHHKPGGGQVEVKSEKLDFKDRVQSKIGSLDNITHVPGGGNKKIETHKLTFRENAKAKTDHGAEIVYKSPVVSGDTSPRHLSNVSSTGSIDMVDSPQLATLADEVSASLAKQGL"}, "[2]": {"target": "Fluorescein (FITC)-labelled bi-phospho Tau peptide pS2 (Tau^210–222-…-Tau^318–331) (human)", "sequence (peptide, as listed by the source)": "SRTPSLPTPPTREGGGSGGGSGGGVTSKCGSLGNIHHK", "test": "fluorescence polarisation; 14-3-3ζ titrated (twofold series from 400 μM) into 10 nM fluorescein-labelled peptide; 10 mM HEPES pH 7.4, 150 mM NaCl, 50 µM TCEP, 0.1% Tween20, 0.1% BSA; room temperature; 4PL fit"}}, "data": [{"substance": "14-3-3 protein zeta (14-3-3ζ) (from UniProt P63104 1-245) (natural protein)", "values": [{"measurement": "FRAP mobile fractions in PKA-Tau:14-3-3ζ condensates", "setting": "[1]", "result": 50, "unit": "%"}, {"measurement": "Kd", "setting": "[2]", "result": 1000, "unit": "nM"}]}]}
